# Biological target: HPV16 L1 pentamer (deletion construct of the major capsid protein L1) (human papillomavirus type 16)
# Assay: cryo-EM structure
substance,measurement,value
HPV16 L1 pentamer (deletion construct of the major capsid protein L1) (domain or fragment),stoichiometry N (protomers per pentamer),5
